Test [1] deals with T1, human CD33 (human, UniProt P20138 18-364).
T1 construct: CD33 on human primary dendritic cells, macrophages, monocytes and T cells and on CHO cells expressing recombinant human CD33; also called Siglec-3; hCD33
In words: flow cytometry, human primary macrophages.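 Note: binding of CD33 antibodies at 10 µg/ml to human primary macrophages, 1 h on ice, detected with PE-labelled secondary antibody by flow cytometry, reported as MFI.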 In general terms: A flow cytometer gives signals particle by particle.
Procedure: Initial characterization of CD33 antibodies involved determining their ability to bind CD33 expressed on a CHO cell line, on human primary monocytes, human primary macrophages, human primary dendritic cells, and on human primary T cells. Cells were harvested, plated at 10⁶/ml in a 96 well plate, and incubated in 100 ul PBS containing 2% FBS, 2 mM EDTA and 10 ug/ml Mab and Fc blocking reagent for 1 hour in ice. Cells were washed twice and incubated in 100 ul PBS containing 2% FBS, 2 mM EDTA and 5 ug/ml PE-conjugated secondary antibody for 30 minutes on ice. Cells were washed twice in cold PBS and analyze by flow cytometry on a BD FACS Canto. Data analysis and calculation of MFI values was performed with FlowJo (TreeStar) software version 10.0.7.

The target in test [2] is T1, human CD33. In words: flow cytometry, human primary dendritic cells.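 Note: binding of anti-CD33 antibodies (10 ug/ml, 1 h on ice) to human primary dendritic cells, detected with a PE-labelled secondary antibody, reported as flow cytometry MFI.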
For test [3], the target named is T2, human monomeric His tagged CD33 protein (human, UniProt P20138 18-259).
T2 construct: also called hCD33-His
In words: ForteBio BLI or MSD-SET, IgG, monomeric antigen.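 Note: BLI: antibodies captured on AHQ sensors, 100 nM antigen association 5 min, dissociation 5 min, 1:1 fit. MSD-SET: antigen fixed at 50 pM, antibody titrated, quadratic fit.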
Procedure: (§1) The binding affinity of each anti-CD33 antibody was determined by measuring their KD by ForteBio or MSD-SET. […] Briefly, ForteBio affinity measurements were performed by loading IgGs on-line onto AHQ sensors. Sensors were equilibrated off-line in assay buffer for 30 min and then monitored on-line for 60 seconds for baseline establishment. Sensors with loaded IgGs were exposed to 100 nM antigen for 5 minutes, then transferred to assay buffer for 5 min for off-rate measurement. Kinetics were analyzed using the 1:1 binding model.
(§2) Solution equilibrium titrations (SET) were performed in PBS+0.1% IgG-Free BSA (PBSF) with antigen held constant at 50 pM and incubated with 3-to 5-fold serial dilutions of antibody starting at 10 nM. Antibodies (20 nM in PBS) were coated onto standard bind MSD-ECL plates overnight at 4° C. or at room temperature for 30 min. Plates were then blocked for 30 min with shaking at 700 rpm, followed by three washes with wash buffer (PBSF+0.05% Tween 20). SET samples were applied and incubated on the plates for 150s with shaking at 700 rpm followed by one wash. Antigen captured on a plate was detected with 250 ng/mL sulfotag-labeled streptavidin in PBSF by incubation on the plate for 3 min. The plates were washed three times with wash buffer and then read on the MSD Sector Imager 2400 instrument using 1× Read Buffer T with surfactant. The percent free antigen was plotted as a function of titrated antibody in Prism and fit to a quadratic equation to extract the KD. To improve throughput, liquid handling robots were used throughout MSD-SET experiments, including SET sample preparation.

Test [4] concerns the target T1, human CD33. As to the kind of experiment: flow cytometry, human primary T cells.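 Note: binding of anti-CD33 antibodies at 10 ug/ml to human primary T cells, 1 h on ice, detected with PE-labelled secondary antibody, read as flow cytometry MFI.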
In test [5] the target is T1, human CD33. As to the kind of experiment: flow cytometry, human primary monocytes.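 Note: binding of anti-CD33 antibodies at 10 ug/ml to human primary monocytes, 1 h on ice, detected by PE-labelled secondary antibody, flow cytometry readout as mean fluorescence intensity.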 Details: reference not given here.
Test [6] concerns the target T3, human CD33 Fc fusion protein (human, UniProt P20138 18-259).
T3 construct: also called hCD33-Fc; human CD33/Fc chimera (R&D Systems)
As to the kind of experiment: RBC adhesion to plate-bound CD33-Fc; antibody 1.0 ug/ml.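 Note: red blood cells adhering to plate-coated CD33-Fc after 1 h antibody pretreatment, then 1 h at room temperature, bound cells read as peroxidase activity after lysis.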

The target in test [7] is T1, human CD33. As to the kind of experiment: cell-based or functional assay.
Test [8] has as its target T3, human CD33 Fc fusion protein. In words: RBC adhesion to plate-bound CD33-Fc; antibody 0.5 ug/ml.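 Note: Plate-coated CD33-Fc preincubated 1 h with antibody, then red blood cells added for 1 h at room temperature, adherent cells lysed and quantified via peroxidase activity.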
Procedure: Briefly, 5 ug/ml CD33-Fc was coated overnight at RT in 96 well Immunolon plates, then washed with PBS, blocked for one hour with binding buffer (PBS containing %0.25 BSA 1 mM CaCl₂). CD33 antibodies (0.5 ug/ml or 1.0 ug/ml) or Fabs (25 ug/ml) were bound for one hour at RT with gentle rocking. After removal of unbound antibody, red blood cells were added to each well at a concentration of 3.0×10⁶ cells per ml and incubated at RT for one hour. Unbound RBCs were then carefully washed off 3× with PBS, and water was added to each well for hypotonic lysis of bound RBCs. The plate was transferred to −80° C. for 10 minutes, followed by 37° C. for 15 minutes. Bound RBCs were detected by peroxidase activity, followed by 2N sulfuric acid to stop the reaction.
Test [9] shares this target. In words: ForteBio BLI or MSD-SET, IgG, avid. (In general: In BLI a coated tip is dipped into the sample, and binding shifts an interference pattern.)
Procedure: as §1, §2
Test [10] concerns the target T4, mouse CD33 Fc fusion protein (mouse, UniProt Q63994 18-240, limits assumed).
T4 construct: also called mCD33-Fc
T4 sequence: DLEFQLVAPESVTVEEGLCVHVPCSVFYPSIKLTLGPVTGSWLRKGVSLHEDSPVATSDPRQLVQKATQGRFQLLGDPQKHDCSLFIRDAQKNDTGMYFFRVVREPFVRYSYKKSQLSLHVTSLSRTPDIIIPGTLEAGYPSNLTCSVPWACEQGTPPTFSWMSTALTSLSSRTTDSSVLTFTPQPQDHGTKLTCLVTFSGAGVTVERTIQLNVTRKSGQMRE
As to the kind of experiment: ForteBio BLI or MSD-SET.

T2 sequence (P20138 18-259 limits assumed): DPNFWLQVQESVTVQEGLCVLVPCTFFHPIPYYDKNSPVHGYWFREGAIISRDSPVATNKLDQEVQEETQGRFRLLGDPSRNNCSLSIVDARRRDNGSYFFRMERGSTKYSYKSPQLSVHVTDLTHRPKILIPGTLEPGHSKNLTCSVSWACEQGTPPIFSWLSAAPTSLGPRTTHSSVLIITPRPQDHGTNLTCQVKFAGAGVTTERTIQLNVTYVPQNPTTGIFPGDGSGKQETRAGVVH
T3 sequence (P20138 18-259 limits assumed): as above
T1 sequence (P20138 18-364): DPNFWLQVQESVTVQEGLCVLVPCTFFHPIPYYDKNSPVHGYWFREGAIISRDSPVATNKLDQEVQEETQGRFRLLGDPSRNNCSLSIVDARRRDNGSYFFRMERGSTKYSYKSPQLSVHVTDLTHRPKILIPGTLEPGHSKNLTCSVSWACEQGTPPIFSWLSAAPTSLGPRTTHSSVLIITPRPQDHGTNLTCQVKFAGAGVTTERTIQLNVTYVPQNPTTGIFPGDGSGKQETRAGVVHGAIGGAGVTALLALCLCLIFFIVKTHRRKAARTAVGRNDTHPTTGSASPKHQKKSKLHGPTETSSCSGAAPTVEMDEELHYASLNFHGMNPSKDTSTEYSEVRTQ

B1: C-109 (antibody, V domains shown)
VH: EVQLVESGGGLVQPGGSLRLSCAASGFTFSSYWMSWVRQAPGKGLEWVANIKSDGSEKYYVDSVKGRFTISRDNAKNSLYLQMNSLRAEDTAVYYCARDVGGDYSGSDLASYWGQGTLVTVSS
VL: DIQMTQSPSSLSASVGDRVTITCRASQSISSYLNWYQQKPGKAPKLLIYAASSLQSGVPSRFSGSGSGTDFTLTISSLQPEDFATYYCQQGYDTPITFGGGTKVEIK
notes: human IgG1
Regarding B1, in test [1], the “Macrophage MFI” value worked out at 1240. The “DC MFI” value in test [2] is 164. In test [3], this molecule had a Kd of 4.8 nM. Besides, the “T cell MFI” value in [4] was determined as 247. In [5], the “Monocyte MFI” value came to 867. In addition, the “Percent RBC Binding to CD33” value in test [6] came to 8.3%. In test [7], the “Percent CD33 Surface Expression, DC % CD33” value came out at 30%; the “Percent CD33 Surface Expression, Macrophage % CD33” value amounted to 38.9%; the “Percent CD33 Surface Expression, Monocyte % CD33” value was 31.1%. Besides, the “Percent RBC Binding to CD33” value in [8] was found to be 17.6%. Moreover, the Kd in [9] amounted to 1.24 nM. Also, the binding result in [10] is “no binding (tested: 100 nM)”.

B2: C-9 (antibody, V domains shown)
VH: QLQLQESGPGLVKPSETLSLTCTVSGGSISSSSYYWGWIRQPPGKGLEWIGSIYYSGSTYYNPSLKSRVTISVDTSKNQFSLKLSSVTAADTAVYYCARESGFAGLDPWGQGTLVTVSS
VL: EIVLTQSPGTLSLSPGERATLSCRASQSVSSSFLAWYQQKPGQAPRLLIYGASSRATGIPDRFSGSGSGTDFTLTISRLEPEDFAVYYCQQSEDWPTFGGGTKVEIK
notes: human IgG1
For B2, in test [1], the “Macrophage MFI” value came to 886. Also, the “DC MFI” value in [2] was determined as 1700. Also, the Kd in [3] turned out to be 4.17 nM. In addition, in test [4], the “T cell MFI” value came to 307. The “Monocyte MFI” value in test [5] was found to be 175. Moreover, the “Percent RBC Binding to CD33” value in test [6] came to 20%. Also, in [7], the “Percent CD33 Surface Expression, DC % CD33” value was determined as 26%; the “Percent CD33 Surface Expression, Macrophage % CD33” value was found to be 63.4%; the “Percent CD33 Surface Expression, Monocyte % CD33” value is 33.1%. Further, the “Percent RBC Binding to CD33” value in [8] is 27.8%. For the same molecule, in [9], binding was put at a Kd of 1.09 nM. Moreover, the binding result in [10] is recorded as “no binding (tested: 100 nM)”.

B3: C-12 (antibody, V domains shown)
VH: EVQLLESGGGLVQPGGSLRLSCAASGFTFSNYAMSWVRQAPGKGLEWVSAISGSGGSTYYADSVKGRFTISRDNSKNTLYLQMNSLRAEDTAVYYCARDGSRYSYGLVAYGMDVWGQGTTVTVSS
VL: EIVLTQSPGTLSLSPGERATLSCRASQSVSSSFLAWYQQKPGQAPRLLIYGASSRATGIPDRFSGSGSGTDFTLTISRLEPEDFAVYYCQQSQLRPTFGGGTKVEIK
notes: human IgG1
In the case of B3, the “Macrophage MFI” value in test [1] amounted to 1080. Further, the “DC MFI” value in test [2] came to 1120. The same molecule yielded a Kd in [3] of 7.47 nM. The “T cell MFI” value in test [4] was found to be 182. In addition, in [5], the “Monocyte MFI” value stood at 208. Further, the “Percent RBC Binding to CD33” value in test [6] amounted to 17.8%. Besides, in [7], the “Percent CD33 Surface Expression, DC % CD33” value stood at 23.6%; the “Percent CD33 Surface Expression, Macrophage % CD33” value was 68.5%; the “Percent CD33 Surface Expression, Monocyte % CD33” value was found to be 54.2%. The “Percent RBC Binding to CD33” value in test [8] worked out at 6.34%. The Kd in test [9] was found to be 1.84 nM. Besides, the binding result in [10] is “no binding (tested: 100 nM)”.

B4: C-95 (antibody, V domains shown)
VH: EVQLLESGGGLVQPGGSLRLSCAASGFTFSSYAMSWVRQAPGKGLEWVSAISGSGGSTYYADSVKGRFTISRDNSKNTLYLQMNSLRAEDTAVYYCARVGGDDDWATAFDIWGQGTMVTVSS
VL: DIVMTQSPDSLAVSLGERATINCKSSQSVLYSSNNKNYLAWYQQKPGQAPRLLIYGASSRATGIPDRFSGSGSGTDFTLTISRLEPEDFAVYYCQQDYSSPLTFGGGTKVEIK
notes: human IgG1
On to B4, for which the “Macrophage MFI” value in [1] is 369. The “DC MFI” value in test [2] turned out to be 48. In addition, the Kd in test [3] was 71.5 nM; in test [9], 9.65 nM. Also, the “T cell MFI” value in test [4] is 144. For the same molecule, the “Monocyte MFI” value in test [5] was determined as 569. Also, the “Percent RBC Binding to CD33” value is 92.3% in test [6] and 85% in test [8]. Besides, the “Percent CD33 Surface Expression, DC % CD33” value in [7] worked out at 87.9%. For the same molecule, in test [7], the “Percent CD33 Surface Expression, Monocyte % CD33” value is 83%. Further, the binding result in test [10] is “no binding (tested: 100 nM)”.

B5: C-8 (antibody, V domains shown)
VH: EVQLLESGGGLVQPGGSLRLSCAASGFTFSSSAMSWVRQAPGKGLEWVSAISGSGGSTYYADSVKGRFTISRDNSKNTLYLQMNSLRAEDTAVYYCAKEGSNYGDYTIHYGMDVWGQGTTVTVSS
VL: EIVLTQSPGTLSLSPGERATLSCRASQSVSSSFLAWYQQKPGQAPRLLIYGASSRATGIPDRFSGSGSGTDFTLTISRLEPEDFAVYYCQQVASPPPTFGGGTKVEIK
notes: human IgG1
Regarding B5, in test [1], the “Macrophage MFI” value amounted to 980. The “DC MFI” value in test [2] amounted to 1370. Also, binding in test [3] was characterised by a dissociation constant (Kd) of 6.94 nM. For the same molecule, in test [4], the “T cell MFI” value was 193. The “Monocyte MFI” value in test [5] came out at 204. The “Percent RBC Binding to CD33” value in test [6] stood at 12.7%. In test [7], the “Percent CD33 Surface Expression, DC % CD33” value was found to be 42.1%; the “Percent CD33 Surface Expression, Macrophage % CD33” value amounted to 87.3%; the “Percent CD33 Surface Expression, Monocyte % CD33” value was 51.9%. In [8], the “Percent RBC Binding to CD33” value came to 12.7%. The molecule further returned a Kd in test [9] of 1.95 nM. For the same molecule, the binding result in [10] is “no binding (tested: 100 nM)”.

B6: C-3 (antibody, V domains shown)
VH: QVQLVQSGAEVKKPGSSVKVSCKASGGTFSNYAISWVRQAPGQGLEWMGGIIPIFGTANYAQKFQGRVTITADESTSTAYMELSSLRSEDTAVYYCARDTGTYVTGDGMDVWGQGTTVTVSS
VL: EIVMTQSPATLSVSPGERATLSCRASQSVSSNLAWYQQKPGQAPRLLIYGASTRATGIPARFSGSGSGTEFTLTISSLQSEDFAVYYCQQYDVWPITFGGGTKVEIK
notes: human IgG1
In the case of B6, the “Macrophage MFI” value in [1] worked out at 715. Also, in [2], the “DC MFI” value turned out to be 1520. Binding in test [3] was put at a Kd of 5.76 nM. Moreover, the “T cell MFI” value in test [4] turned out to be 262. Moreover, in [5], the “Monocyte MFI” value was 109. Also, the “Percent RBC Binding to CD33” value in test [6] was 9.8%. Moreover, in [7], the “Percent CD33 Surface Expression, DC % CD33” value stood at 27.9%; the “Percent CD33 Surface Expression, Macrophage % CD33” value is 63.5%; the “Percent CD33 Surface Expression, Monocyte % CD33” value was found to be 29.1%. For the same molecule, the “Percent RBC Binding to CD33” value in [8] is 14.5%. The molecule also came in with a Kd in test [9] of 1.11 nM. The binding result in test [10] is on record as “no binding (tested: 100 nM)”.

B7: C-11 (antibody, V domains shown)
VH: QVQLVQSGAEVKKPGSSVKVSCKASGGTFSNYAISWVRQAPGQGLEWMGGIIPIFGTANYAQKFQGRVTITADESTSTAYMELSSLRSEDTAVYYCARDTGTYVTGDGMDVWGQGTTVTVSS
VL: EIVMTQSPATLSVSPGERATLSCRASQSVSSNLAWYQQKPGQAPRLLIYSASTRATGIPARFSGSGSGTEFTLTISSLQSEDFAVYYCQQYIVLPITFGGGTKVEIK
notes: human IgG1
Turning to B7, the “Macrophage MFI” value in test [1] stood at 795. Moreover, in test [2], the “DC MFI” value was 1030. Also, the Kd in test [3] is 7.12 nM. Also, the “T cell MFI” value in test [4] was 231. In test [5], the “Monocyte MFI” value was 106. In addition, in test [6], the “Percent RBC Binding to CD33” value was found to be 7.6%. In addition, in test [7], the “Percent CD33 Surface Expression, DC % CD33” value worked out at 23.3%; the “Percent CD33 Surface Expression, Macrophage % CD33” value came to 64.3%; the “Percent CD33 Surface Expression, Monocyte % CD33” value came to 41.3%. In [8], the “Percent RBC Binding to CD33” value was 13%. The same molecule showed a Kd in test [9] of 1.56 nM. For the same molecule, the binding result in [10] is listed as “no binding (tested: 100 nM)”.

B8: C-10 (antibody, V domains shown)
VH: QVQLVQSGAEVKKPGSSVKVSCKASGGTFSNYAISWVRQAPGQGLEWMGGIIPIFGTANYAQKFQGRVTITADESTSTAYMELSSLRSEDTAVYYCARDTGTYVTGDGMDVWGQGTTVTVSS
VL: EIVMTQSPATLSVSPGERATLSCRASQSVSSNLAWYQQKPGQAPRLLIYGASTRATGIPARFSGSGSGTEFTLTISSLQSEDFAVYYCQQYVNLPITFGGGTKVEIK
notes: human IgG1
On to B8, for which, in [1], the “Macrophage MFI” value worked out at 792. In test [2], the “DC MFI” value stood at 1230. In [3], this molecule gave a Kd of 6.24 nM. Further, the “T cell MFI” value in test [4] was found to be 246. The “Monocyte MFI” value in test [5] is 107. Moreover, the “Percent RBC Binding to CD33” value in test [6] was found to be 12.3%. Moreover, in test [7], the “Percent CD33 Surface Expression, DC % CD33” value stood at 19.5%; the “Percent CD33 Surface Expression, Macrophage % CD33” value was found to be 44.5%; the “Percent CD33 Surface Expression, Monocyte % CD33” value was 31.5%. Also, in test [8], the “Percent RBC Binding to CD33” value came to 13.8%. Further, the Kd in test [9] worked out at 1.41 nM. For the same molecule, the binding result in [10] was “no binding (tested: 100 nM)”.

B9: C-92 (antibody, V domains shown)
VH: EVQLVESGGGLVKPGGSLRLSCAASGFTFSSYSMNWVRQAPGKGLEWVSSISSSSSYIYYADSVKGRFTISRDNAKNSLYLQMNSLRAEDTAVYYCARLGATATTDYAYGMDVWGQGTTVTVSS
VL: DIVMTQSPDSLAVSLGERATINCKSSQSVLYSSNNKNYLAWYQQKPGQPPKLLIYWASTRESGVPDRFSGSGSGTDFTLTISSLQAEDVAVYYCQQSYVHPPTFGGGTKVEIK
notes: human IgG1
As to B9, in test [1], the “Macrophage MFI” value was determined as 537. The “DC MFI” value in test [2] is 107. The Kd came out at 15.7 nM in test [3] and 3.4 nM in test [9]. Besides, in [4], the “T cell MFI” value was determined as 42.3. Moreover, the “Monocyte MFI” value in test [5] worked out at 918. Moreover, the results for the “Percent RBC Binding to CD33” value in test [6] and in test [8] were 76.2% and 98.5%, respectively. The “Percent CD33 Surface Expression, DC % CD33” value in test [7] was determined as 73.9%. The “Percent CD33 Surface Expression, Monocyte % CD33” value in [7] came to 79.2%. The binding result in test [10] was “no binding (tested: 100 nM)”.

The Kd is the constant that tells how readily two partners part at equilibrium.

The record behind these values is patent US20220281976A1 (Alector, published 2022).
